The data set is described as follows: protein stability index of a GFP-peptide fusion (GPS, HEK-293T) (PSI 1-6); higher = more stable. To be noted: c terminus: native.
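Further: lentivirally expressed fusion library, cells FACS-sorted into six equal-sized GFP/DsRed ratio bins, PSI computed from sequencing read fractions per bin weighted by bin number.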

B1: SNF8 addK (peptide)
chain: LPALFTDLYSQEITAEEAREALPK
Take B1: the protein stability index (parent: NP_009172.2) amounted to 5.17.

B2: PSMB5 addK (peptide)
chain: DGWIRVSSDNVADLHEKYSGSTPK
Regarding B2, the protein stability index (parent: NP_002788.1) is 4.81.

B3: BEX2 addK (peptide)
chain: HSLRAVSTDPPHHDHHDEFCLMPK
For B3, the protein stability index (parent: NP_116010.1) was determined as 4.67.

B4: TRPA1 addK (peptide)
chain: EQRNSRWNTVLRAVKAKTHHLEPK
B4: the protein stability index (parent: NP_015628.1) is 5.03.

B5: POLD2 addK (peptide)
chain: CQPISFSGFGAEDDDLGGLGLGPK
Consider B5, for which the protein stability index (parent: NP_006221.1) amounted to 4.81.
